The target of assay [1] is T1, Ebola GPdTM (IBT Bioservices) (Ebola virus, UniProt Q05320 33-650).
T1 sequence: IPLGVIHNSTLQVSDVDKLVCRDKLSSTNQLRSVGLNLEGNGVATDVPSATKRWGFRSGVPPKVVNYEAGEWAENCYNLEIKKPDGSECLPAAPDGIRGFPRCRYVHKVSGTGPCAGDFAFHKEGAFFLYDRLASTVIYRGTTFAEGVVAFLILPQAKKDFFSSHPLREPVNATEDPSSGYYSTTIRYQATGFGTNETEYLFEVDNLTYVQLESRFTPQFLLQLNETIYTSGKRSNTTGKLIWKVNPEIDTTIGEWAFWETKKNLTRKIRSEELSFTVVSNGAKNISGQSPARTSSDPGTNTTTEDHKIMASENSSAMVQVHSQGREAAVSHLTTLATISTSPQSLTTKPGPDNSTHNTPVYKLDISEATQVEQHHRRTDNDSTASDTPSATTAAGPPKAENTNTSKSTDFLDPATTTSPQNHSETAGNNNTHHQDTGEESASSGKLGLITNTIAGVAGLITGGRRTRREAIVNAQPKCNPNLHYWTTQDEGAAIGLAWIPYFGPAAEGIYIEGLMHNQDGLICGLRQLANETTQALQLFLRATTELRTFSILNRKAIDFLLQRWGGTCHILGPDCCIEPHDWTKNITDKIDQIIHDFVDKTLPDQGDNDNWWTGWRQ
As to the kind of experiment: ELISA, GPdTM coated at 1 µg/mL, anti-human IgG Fc-HRP detection. (In general: An ELISA detects its analyte on a solid surface through an enzyme-linked reagent.)

The target of assay [2] is T2, Ebola virus glycoprotein on Ebola virus Kikwit 1995 strain (Zaire Ebola virus, Kikwit 1995 strain, UniProt P87666 33-676).
T2 sequence: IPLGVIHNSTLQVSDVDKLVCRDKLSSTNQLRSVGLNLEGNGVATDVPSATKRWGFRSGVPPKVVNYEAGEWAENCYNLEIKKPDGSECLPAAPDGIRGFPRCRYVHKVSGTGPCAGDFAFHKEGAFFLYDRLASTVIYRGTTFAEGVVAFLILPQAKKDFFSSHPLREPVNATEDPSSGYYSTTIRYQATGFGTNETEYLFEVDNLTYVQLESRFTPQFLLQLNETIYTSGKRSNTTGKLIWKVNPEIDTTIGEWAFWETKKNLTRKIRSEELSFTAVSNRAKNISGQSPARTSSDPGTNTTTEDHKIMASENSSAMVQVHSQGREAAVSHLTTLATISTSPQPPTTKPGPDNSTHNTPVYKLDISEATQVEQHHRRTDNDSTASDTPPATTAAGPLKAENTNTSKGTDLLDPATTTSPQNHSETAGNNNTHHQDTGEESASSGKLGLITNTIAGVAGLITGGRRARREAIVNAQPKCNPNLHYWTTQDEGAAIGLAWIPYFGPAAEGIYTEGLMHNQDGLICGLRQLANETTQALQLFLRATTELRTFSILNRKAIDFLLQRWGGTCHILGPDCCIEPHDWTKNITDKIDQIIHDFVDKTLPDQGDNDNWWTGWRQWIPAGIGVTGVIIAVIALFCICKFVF
Put plainly: cell-based or functional assay.

In assay [3] the target is T3, Ebola virus glycoprotein on Ebola virus Mayinga 1976 strain (Zaire Ebola virus, Mayinga 1976 strain, UniProt Q05320 33-676).
T3 sequence: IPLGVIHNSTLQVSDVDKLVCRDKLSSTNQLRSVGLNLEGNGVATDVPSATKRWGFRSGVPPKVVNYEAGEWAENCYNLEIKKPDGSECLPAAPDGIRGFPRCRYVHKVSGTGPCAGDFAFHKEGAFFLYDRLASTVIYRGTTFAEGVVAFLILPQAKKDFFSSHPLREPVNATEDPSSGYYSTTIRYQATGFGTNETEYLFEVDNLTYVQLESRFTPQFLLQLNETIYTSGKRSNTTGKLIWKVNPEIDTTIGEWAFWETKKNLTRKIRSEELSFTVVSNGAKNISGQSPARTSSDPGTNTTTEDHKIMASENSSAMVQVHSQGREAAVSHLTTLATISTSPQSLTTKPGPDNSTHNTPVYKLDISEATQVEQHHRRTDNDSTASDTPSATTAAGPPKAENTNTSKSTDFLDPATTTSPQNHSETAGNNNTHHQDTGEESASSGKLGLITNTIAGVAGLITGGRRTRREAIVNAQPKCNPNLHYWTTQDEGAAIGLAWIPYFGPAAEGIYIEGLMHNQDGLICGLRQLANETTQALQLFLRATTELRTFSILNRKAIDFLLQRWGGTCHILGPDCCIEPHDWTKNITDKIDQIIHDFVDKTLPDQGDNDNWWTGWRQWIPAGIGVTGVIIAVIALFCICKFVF
As to the kind of experiment: cell-based or functional assay.

Assay [4] deals with Ebola virus glycoprotein on Ebola virus Makona 2014 strain (Zaire Ebola virus, Makona 2014 strain). As to the kind of experiment: cell-based or functional assay.

Some results are limits rather than exact numbers.

B1: 4G7 wild type (parent mouse monoclonal antibody 4G7) (antibody, V domains shown)
VH: EVQLQQSGPELEMPGASVKISCKASGSSFTGFSMNWVKQSNGKSLEWIGNIDTYYGGTTYNQKFKGKATLTVDKSSSTAYMQLKSLTSEDSAVYYCARSAYYGSTFAYWGQGTLVTVSS
VL: DIVMTQSPASLSASVGETVTITCRASENIYSYLAWYQQKQGKSPQLLVYNAKTLIEGVPSRFSGSGSGTQFSLKINSLQPEDFGSYFCQHHFGTPFTFGSGTELEIK
As usually defined, the EC50 is the concentration at which the effect is half-maximal. A lower EC50 goes with greater potency. B1 registered a concentration for a half-maximal effect (EC50) in assay [1] of 72.5 pM. This lies in the picomolar range.

B2: 13C6 wild type (parent mouse monoclonal antibody 13C6) (antibody, V domains shown)
VH: QLTLKESGPGILKPSQTLSLTCSLSGFSLSTSGVGVGWFRQPSGKGLEWLALIWWDDDKYYNPSLKSQLSISKDFSRNQVFLKISNVDIADTATYYCARRDPFGYDNAMGYWGQGTSVTVSS
VL: DIVMTQSQKFMSTSVGDRVSLTCKASQNVGTAVAWYQQKPGQSPKLLIYSASNRYTGVPDRFTGSGSGTDFTLTISNMQSEDLADYFCQQYSSYPLTFGAGTKLELR
Regarding B2, the EC50 in assay [1] turned out to be 74.7 pM. This EC50 and that of the molecule before are within 1.5-fold of each other.

B3: 2G4 wild type (parent mouse monoclonal antibody 2G4) (antibody, V domains shown)
VH: EVQLQQSGGGLMQPGGSMKLSCVASGFTFSNYWMNWVRQSPEKGLEWVAEIRLKSNNYATHYAESVKGRFTISRDDSKRSVYLQMNTLRAEDTGIYYCTRGNGNYRAMDYWGQGTSVTVSS
VL: DIVMTQSPASLSVSVGETVSITCRASENIYSSLAWYQQKQGKSPQLLVYSATILADGVPSRFSGSGSGTQYSLKINSLQSEDFGTYYCQHFWGTPYTFGGGTKLEIK
B3: in assay [1], the EC50 was found to be 154 pM.

B4: 13C6.1 (antibody, V domains shown)
VH: QLTLKESGPTLVKPTQTLSLTCTFSGFSLSTSGVGVGWFRQPPGKALEWLALIWWDDDKYYSPSLKSRLTITKDTSKNQVVLTMTNMDPVDTATYYCARRDPFGYDNAMGYWGQGTTVTVSS
VL: DIVMTQSPSFLSASVGDRVTITCKASQNVGTAVAWYQQKPGKAPKLLIYSASNRYSGVPSRFSGSGSGTDFTLTISSLQPEDFATYFCQQYSSYPLTFGGGTKLEIK
On to B4, for which a half-maximal effect in assay [1] (EC50) was put at 136 pM. Moreover, the “plaque reduction neutralization titre (Vero E6 cells, 200 pfu)” value (shortened to “plaque reduction neutralization titre”) in assay [2], in assay [3] and in assay [4] was greater than 50 µg/mL each time.

B5: 4G7.10 (antibody, V domains shown)
VH: QVQLVQSGAEVKKPGSSVKVSCKASGSSFTGFSMNWVRQAPGQSLEWIGNIDTYYGGTTYNGKFKGRVTLTVDKSTSTAYMELSSLRSEDTAVYYCARSAYYGSTFAYWGQGTLVTVSS
VL: DIQMTQSPSSLSASVGDRVTITCRASENIYSYLAWYQQKPGKSPKLLVYNAKTLIEGVPSRFSGSGSGTDFTFTISSLQPEDIATYFCQHHFGTPFTFGQGTKVEIK
Take B5: the EC50 in assay [1] was 120 pM.

B6: 4G7.3 (antibody, V domains shown)
VH: QVQLVQSGAEVKKPGSSVKVSCKASGSSFTGFSMNWVRQAPGQGLEWMGNIDTYYGGTTYNGKFKGRVTITADKSTSTAYMELSSLRSEDTAVYYCARSAYYGSTFAYWGQGTLVTVSS
VL: DIVMTQSPSSLSASVGDRVTITCRASENIYSYLAWYQQKPGKSPKLLVYNAKTLIEGVPSRFSGSGSGTQFSLTISSLQPEDIATYFCQHHFGTPFTFGSGTKVEIK
As to B6, the EC50 in assay [1] turned out to be 176 pM.

B7: 4G7.9 (antibody, V domains shown)
VH: QVQLVQSGAEVKKPGSSVKVSCKASGSSFTGFSMNWVRQAPGQSLEWIGNIDTYYGGTTYNGKFKGRVTLTVDKSTSTAYMELSSLRSEDTAVYYCARSAYYGSTFAYWGQGTLVTVSS
VL: DIQMTQSPSSLSASVGDRVTITCRASENIYSYLAWYQQKPGKAPKLLVYNAKTLIEGVPSRFSGSGSGTDFTFTISSLQPEDIATYYCQHHFGTPFTFGQGTKVEIK
As to B7, the EC50 in assay [1] came out at 99.7 pM. In addition, the “plaque reduction neutralization titre” value in assay [2], in assay [3] and in assay [4] was 1 µg/mL each time.

B8: 4G7.11 (antibody, V domains shown)
VH: QVQLVQSGAEVKKPGSSVKVSCKASGSSFTGFSMNWVRQAPGQSLEWIGNIDTYYGGTTYNGKFKGRVTLTVDKSTSTAYMELSSLRSEDTAVYYCARSAYYGSTFAYWGQGTLVTVSS
VL: DIVMTQSPSSLSASVGDRVTITCRASENIYSYLAWYQQKPGKSPKLLVYNAKTLIEGVPSRFSGSGSGTQFSLTISSLQPEDIATYFCQHHFGTPFTFGSGTKVEIK
In assay [1], B8 came in with an EC50 of 145 pM.

B9: 4G7.1 (antibody, V domains shown)
VH: QVQLVQSGAEVKKPGSSVKVSCKASGSSFTGFSMNWVRQAPGQGLEWMGNIDTYYGGTTYNGKFKGRVTITADKSTSTAYMELSSLRSEDTAVYYCARSAYYGSTFAYWGQGTLVTVSS
VL: DIQMTQSPSSLSASVGDRVTITCRASENIYSYLAWYQQKPGKAPKLLVYNAKTLIEGVPSRFSGSGSGTDFTFTISSLQPEDIATYYCQHHFGTPFTFGQGTKVEIK
In the case of B9, a half-maximal response in assay [1] (EC50) required 182 pM. This EC50 and that of the molecule before are within 1.5-fold of each other.

B10: 4G7.2 (antibody, V domains shown)
VH: QVQLVQSGAEVKKPGSSVKVSCKASGSSFTGFSMNWVRQAPGQGLEWMGNIDTYYGGTTYNGKFKGRVTITADKSTSTAYMELSSLRSEDTAVYYCARSAYYGSTFAYWGQGTLVTVSS
VL: DIQMTQSPSSLSASVGDRVTITCRASENIYSYLAWYQQKPGKSPKLLVYNAKTLIEGVPSRFSGSGSGTDFTFTISSLQPEDIATYFCQHHFGTPFTFGQGTKVEIK
For the molecule B10, in assay [1], the EC50 stood at 95.2 pM.

B11: 4G7.12 (antibody, V domains shown)
VH: QVQLVQSGAEVKKPGSSVKVSCKASGSSFTGFSMNWVRQAPGQSLEWIGNIDTYYGGTTYNGKFKGRVTLTVDKSTSTAYMELSSLRSEDTAVYYCARSAYYGSTFAYWGQGTLVTVSS
VL: DIVMTQSPSSLSASVGDRVTITCRASENIYSYLAWYQQKPGKSPKLLVYNAVTLIEGVPSRFSGSGSGTQFSLTISSLQPEDIATYFCQHHFGTPFTFGSGTKVEIK
In assay [1], B11 had an EC50 of 88.8 pM. This EC50 and that of the molecule before are within 1.5-fold of each other.

B12: 2G4.3 (antibody, V domains shown)
VH: EVQLLESGGGLVQPGGSLRLSCVASGFTFSNYWMNWVRQAPGKGLEWLGFIRLKSNNYATHYSASVKGRFTISRDKSKSTLYLQMNTLQAEDSAIYYCTRGNGNYRAMDYWGQGTLVTVSS
VL: DIVMTQSPSSLSASVGDRVTITCRASENIYSSLAWYQQKPGKSPQLLVYSATILADGVPSRFSGSGSGTQYTLTISSLQPEDFATYYCQHFWGTPYTFGGGTKVEIK
Consider B12, for which, in assay [1], the EC50 is 129 pM. The EC50 values of the last two molecules are within 1.5-fold of each other.

B13: 2G4.6 (antibody, V domains shown)
VH: EVQLLESGGGLVQPGGSLRLSCVASGFTFSNYWMNWVRQAPGKGLEWLAEIRLKSNNYATHYSASVKGRFTISRDKSKSTLYLQMNTLQAEDSAIYYCTRGNGNYRAMDYWGQGTLVTVSS
VL: DIVMTQSPSSLSASVGDRVTITCRASENIYSSLAWYQQKPGKSPQLLVYSATILADGVPSRFSGSGSGTQYTLTISSLQPEDFATYYCQHFWGTPYTFGGGTKVEIK
In turn, B13 came in with an EC50 in assay [1] of 109 pM. The “plaque reduction neutralization titre” value in assay [2] was found to be 4 µg/mL; in assay [3], 2 µg/mL; in assay [4] it was 2 µg/mL.

Source of the values: US20210095007A1 (MIT, published 2021).
